Our source for the % bound values is US20080044360A1.

Bridge positions count the residues as written; N and C are the ends. Square brackets hold non-standard residues; d marks the D form. Primed or numbered codes have the meaning given here. Side chains are listed from the residue outwards. Ends that are not written are not given here. * marks the point of attachment. Tyr(3-Cl) = N[C@@H](Cc1ccc(O)c(Cl)c1)C(=O)O; Phe(4-NH2) = Nc1ccc(C[C@H](N)C(=O)O)cc1; Gd^T(3) = GdDTPA attached via thiourea; d1Nal = N[C@H](Cc1cccc2ccccc12)C(=O)O; Pen = CC(C)(S)[C@H](N)C(=O)O; Gd^T = not defined here; Gd^T″ = GdDTPA-thiourea; Cbz = O=C(OCc1ccccc1)*; Dap = NC[C@H](N)C(=O)O

B1: SEQ ID NO 159 (peptide)
peptide: YHACYQAG[dC]WIW
modifications: disulfide 4-9 (inferred); not fully specified (C-terminus); printed as YHACYQAGcWIW
B2: SEQ ID NO 167 (peptide)
peptide: QWT[dC]SGDEYTWHCNYE
modifications: disulfide 4-13 (inferred); not fully specified (N-terminus, C-terminus); printed as QWTcSGDEYTWHCNYE
B3: SEQ ID NO 174 (peptide)
peptide: QWTCSGDEYTW[dH]CNYE
modifications: disulfide 4-13 (inferred); not fully specified (N-terminus); printed as QWTCSGDEYTWhCNYE
B4: SEQ ID NO 171 (peptide)
peptide: QWTCSGDE[dY]TWHCNYE
modifications: disulfide 4-13 (inferred); not fully specified (N-terminus); printed as QWTCSGDEyTWHCNYE
B5: SEQ ID NO 169 (peptide)
peptide: QWTCSG[dD]EYTWHCNYE
modifications: disulfide 4-13 (inferred); not fully specified (N-terminus); printed as QWTCSGdEYTWHCNYE

Sequence of rat collagen, acid soluble, type I, rat tail (Upstate 08-115) (rat) (P02454 152-1207, chain 1 of 2): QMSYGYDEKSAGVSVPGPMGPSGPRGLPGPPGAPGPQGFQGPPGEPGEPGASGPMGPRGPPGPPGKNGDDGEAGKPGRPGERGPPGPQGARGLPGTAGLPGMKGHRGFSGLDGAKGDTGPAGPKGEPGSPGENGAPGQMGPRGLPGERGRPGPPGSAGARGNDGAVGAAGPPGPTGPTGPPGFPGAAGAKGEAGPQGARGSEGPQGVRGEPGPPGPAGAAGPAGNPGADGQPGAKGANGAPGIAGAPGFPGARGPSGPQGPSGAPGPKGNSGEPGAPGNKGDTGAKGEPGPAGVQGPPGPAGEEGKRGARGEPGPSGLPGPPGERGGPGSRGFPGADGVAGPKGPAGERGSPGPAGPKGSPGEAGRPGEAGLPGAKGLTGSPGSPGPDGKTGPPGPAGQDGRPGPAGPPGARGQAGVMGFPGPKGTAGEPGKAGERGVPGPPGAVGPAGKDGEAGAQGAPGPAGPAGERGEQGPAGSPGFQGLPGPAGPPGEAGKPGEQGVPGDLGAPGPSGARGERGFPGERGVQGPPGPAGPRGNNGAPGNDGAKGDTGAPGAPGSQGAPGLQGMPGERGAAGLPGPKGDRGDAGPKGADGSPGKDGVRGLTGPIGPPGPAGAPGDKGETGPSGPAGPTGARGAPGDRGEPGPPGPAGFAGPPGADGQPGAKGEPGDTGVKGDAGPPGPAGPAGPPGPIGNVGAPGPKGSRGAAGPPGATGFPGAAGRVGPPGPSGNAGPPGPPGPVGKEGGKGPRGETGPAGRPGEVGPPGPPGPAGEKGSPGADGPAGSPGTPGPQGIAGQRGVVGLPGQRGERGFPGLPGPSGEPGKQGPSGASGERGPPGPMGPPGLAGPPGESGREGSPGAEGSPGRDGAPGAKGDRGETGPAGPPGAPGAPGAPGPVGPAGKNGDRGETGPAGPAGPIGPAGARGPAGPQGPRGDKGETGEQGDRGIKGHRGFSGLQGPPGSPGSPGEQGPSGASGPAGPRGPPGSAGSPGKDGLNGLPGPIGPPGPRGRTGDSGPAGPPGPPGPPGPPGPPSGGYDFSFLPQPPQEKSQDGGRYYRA
Sequence of rat collagen, acid soluble, type I, rat tail (Upstate 08-115) (rat) (P02466 86-1125, chain 2 of 2, further chain): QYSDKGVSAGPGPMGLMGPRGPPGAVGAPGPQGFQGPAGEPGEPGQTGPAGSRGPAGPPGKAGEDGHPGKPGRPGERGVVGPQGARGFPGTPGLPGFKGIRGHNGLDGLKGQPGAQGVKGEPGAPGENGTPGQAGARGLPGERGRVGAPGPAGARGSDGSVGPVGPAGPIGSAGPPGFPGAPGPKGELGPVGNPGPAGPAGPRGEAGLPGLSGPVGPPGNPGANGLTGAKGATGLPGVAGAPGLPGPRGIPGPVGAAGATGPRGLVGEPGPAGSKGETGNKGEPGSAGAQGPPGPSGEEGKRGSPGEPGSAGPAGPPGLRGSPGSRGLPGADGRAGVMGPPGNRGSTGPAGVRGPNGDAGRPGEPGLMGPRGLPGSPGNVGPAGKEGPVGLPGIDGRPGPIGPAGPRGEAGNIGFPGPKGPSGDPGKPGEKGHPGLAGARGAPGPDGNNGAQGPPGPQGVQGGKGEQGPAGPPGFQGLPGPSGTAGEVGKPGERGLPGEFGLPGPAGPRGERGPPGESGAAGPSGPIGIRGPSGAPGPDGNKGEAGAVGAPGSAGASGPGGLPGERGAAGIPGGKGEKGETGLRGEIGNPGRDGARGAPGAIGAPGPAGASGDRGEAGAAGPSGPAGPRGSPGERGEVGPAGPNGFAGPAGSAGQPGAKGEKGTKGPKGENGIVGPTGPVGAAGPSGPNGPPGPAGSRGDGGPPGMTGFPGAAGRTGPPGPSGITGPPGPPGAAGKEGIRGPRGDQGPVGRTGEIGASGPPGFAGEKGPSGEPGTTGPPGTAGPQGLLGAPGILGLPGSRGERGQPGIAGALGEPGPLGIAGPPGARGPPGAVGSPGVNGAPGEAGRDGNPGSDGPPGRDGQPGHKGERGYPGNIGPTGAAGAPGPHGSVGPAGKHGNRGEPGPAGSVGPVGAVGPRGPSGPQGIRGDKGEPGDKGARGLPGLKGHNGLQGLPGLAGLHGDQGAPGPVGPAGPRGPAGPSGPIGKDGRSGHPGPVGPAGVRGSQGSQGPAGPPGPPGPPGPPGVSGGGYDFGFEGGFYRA
Sequence of human collagen type I, acid soluble, extracted from placenta (Sigma C7774) (human) (P02452 162-1218 limits assumed, chain 1 of 2): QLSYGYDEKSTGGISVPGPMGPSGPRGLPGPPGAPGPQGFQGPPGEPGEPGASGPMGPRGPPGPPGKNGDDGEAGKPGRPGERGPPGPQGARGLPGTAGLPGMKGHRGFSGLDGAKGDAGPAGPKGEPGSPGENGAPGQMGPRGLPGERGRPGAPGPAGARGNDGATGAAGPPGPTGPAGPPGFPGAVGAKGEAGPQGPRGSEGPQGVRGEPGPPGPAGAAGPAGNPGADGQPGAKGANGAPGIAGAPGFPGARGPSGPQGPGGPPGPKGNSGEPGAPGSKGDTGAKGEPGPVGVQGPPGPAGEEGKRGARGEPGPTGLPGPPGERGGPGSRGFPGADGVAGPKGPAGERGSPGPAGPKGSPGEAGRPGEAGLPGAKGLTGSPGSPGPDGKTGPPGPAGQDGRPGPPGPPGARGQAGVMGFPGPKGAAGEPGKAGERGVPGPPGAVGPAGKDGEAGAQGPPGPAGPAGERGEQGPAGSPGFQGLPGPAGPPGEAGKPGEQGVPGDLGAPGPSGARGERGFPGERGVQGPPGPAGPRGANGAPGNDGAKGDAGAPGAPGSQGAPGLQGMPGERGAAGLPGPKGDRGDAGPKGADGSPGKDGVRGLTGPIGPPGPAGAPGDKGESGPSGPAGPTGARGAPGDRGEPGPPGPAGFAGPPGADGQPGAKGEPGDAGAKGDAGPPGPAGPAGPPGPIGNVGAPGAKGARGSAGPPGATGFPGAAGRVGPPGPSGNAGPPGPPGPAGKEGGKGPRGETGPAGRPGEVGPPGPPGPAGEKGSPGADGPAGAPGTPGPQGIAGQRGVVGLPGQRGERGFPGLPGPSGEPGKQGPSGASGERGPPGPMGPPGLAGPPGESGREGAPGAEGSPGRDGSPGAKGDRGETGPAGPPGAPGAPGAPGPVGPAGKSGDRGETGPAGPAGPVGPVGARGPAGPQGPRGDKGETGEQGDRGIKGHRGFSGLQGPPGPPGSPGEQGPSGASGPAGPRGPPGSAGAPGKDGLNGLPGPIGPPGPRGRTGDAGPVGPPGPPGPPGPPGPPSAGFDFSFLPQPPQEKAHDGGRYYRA
Sequence of human collagen type I, acid soluble, extracted from placenta (Sigma C7774) (human) (P08123 80-1119 limits assumed, chain 2 of 2, further chain): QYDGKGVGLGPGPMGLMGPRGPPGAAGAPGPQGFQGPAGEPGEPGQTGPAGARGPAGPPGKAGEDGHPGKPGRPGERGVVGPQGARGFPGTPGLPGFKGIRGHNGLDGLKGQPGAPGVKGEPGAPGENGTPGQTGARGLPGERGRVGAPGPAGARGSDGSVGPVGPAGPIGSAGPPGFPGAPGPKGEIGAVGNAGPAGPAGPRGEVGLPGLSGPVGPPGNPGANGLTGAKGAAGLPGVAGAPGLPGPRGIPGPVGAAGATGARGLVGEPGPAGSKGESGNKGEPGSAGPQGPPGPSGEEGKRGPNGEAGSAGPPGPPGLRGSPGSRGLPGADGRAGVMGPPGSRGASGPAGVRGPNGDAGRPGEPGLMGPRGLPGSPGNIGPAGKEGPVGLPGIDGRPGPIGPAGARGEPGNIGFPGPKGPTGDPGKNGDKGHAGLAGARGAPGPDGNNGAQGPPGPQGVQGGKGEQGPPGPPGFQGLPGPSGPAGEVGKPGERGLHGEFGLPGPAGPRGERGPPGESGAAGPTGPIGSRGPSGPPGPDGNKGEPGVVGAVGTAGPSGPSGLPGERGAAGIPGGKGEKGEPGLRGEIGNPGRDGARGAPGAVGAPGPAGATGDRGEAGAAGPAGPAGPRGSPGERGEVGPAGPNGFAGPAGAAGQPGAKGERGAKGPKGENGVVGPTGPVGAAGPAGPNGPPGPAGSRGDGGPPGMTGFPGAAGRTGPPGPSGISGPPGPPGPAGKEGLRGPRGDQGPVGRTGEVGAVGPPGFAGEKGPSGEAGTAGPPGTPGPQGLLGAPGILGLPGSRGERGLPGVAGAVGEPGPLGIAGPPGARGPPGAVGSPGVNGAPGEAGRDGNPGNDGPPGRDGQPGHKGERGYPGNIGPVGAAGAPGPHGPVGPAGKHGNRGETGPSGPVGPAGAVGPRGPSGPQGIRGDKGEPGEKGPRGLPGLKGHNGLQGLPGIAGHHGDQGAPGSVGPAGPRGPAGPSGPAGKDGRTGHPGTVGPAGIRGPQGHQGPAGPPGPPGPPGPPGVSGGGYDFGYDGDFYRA

The first assay concerns the target human collagen type I, acid soluble, extracted from placenta (Sigma C7774) (human) (UniProt P02452). In words: dried collagen assay.
Molecule B1 came in with a % bound of 7%. The same measure, in the same setting: the value for AKKCWYNDGGHLRCRTL (disulfide 4-14 (inferred)) [SEQ ID NO 99] was 3%; that for PWWCHEMPSMCFGF (disulfide 4-11 (inferred)) [SEQ ID NO 3] was 2%; that for {Gd^T″}-GQWHCT[dS]RFPHHYCLYG (disulfide 5-14 (inferred); not fully specified (C-terminus)) [Compound ID 898] was 5%. For B2, the % bound worked out at 4%. On the same count and under the same terms, next, GWSCHGDAADWPCQWS (disulfide 4-13 (inferred)) [SEQ ID NO 38]: 6%; FSECVWVNAYQCEYF (disulfide 4-12 (inferred)) [SEQ ID NO 113]: 3%. The same measure, in the same setting: the value for {Gd^T″}-GQWHCT[dN]RFPHHYCLYG (disulfide 5-14 (inferred); not fully specified (C-terminus)) [Compound ID 897] was 4%; that for SWHCFLENHHWMCSDH (disulfide 4-13 (inferred)) [SEQ ID NO 68] was 5%; that for LWTCSMDRNYDWVCGEK (disulfide 4-14 (inferred)) [SEQ ID NO 82] was 3%. Still for that read-out and setting: next, YHACYQAGCYIY (disulfide 4-9 (inferred)) [SEQ ID NO 108]: 5%; QWFCEMDEYGKWNCGMM (disulfide 4-14 (inferred)) [SEQ ID NO 81]: 3%. Take SWYCNNGSYGQWHCEHR (disulfide 4-14 (inferred)) [SEQ ID NO 80]: the % bound worked out at 6%. In turn, {Gd^T″}-GQWHCT[dR]RFPHHYCLYG (disulfide 5-14 (inferred); not fully specified (C-terminus)) [Compound ID 900] displayed a % bound of 4%. Same read-out and setting: next, SWSCGGDHNAWKCQYS (disulfide 4-13 (inferred)) [SEQ ID NO 36]: 7%.

Regarding GQWTCSGDEYTAHCNYE (disulfide 5-14 (inferred); not fully specified (C-terminus)) [SEQ ID NO 147], the % bound amounted to 5%. As to GWACNTTSKGDWECTNL (disulfide 4-14 (inferred)) [SEQ ID NO 83], the % bound was 3%. Same read-out and setting: next, {Gd^T″}-GQWHCTTRFPHH[dT]CLYG (disulfide 5-14 (inferred); not fully specified (C-terminus)) [Compound ID 905]: 6%; LWNCHGTDANWKCVLN (disulfide 4-13 (inferred)) [SEQ ID NO 37]: 7%; GWSCHSMDMQWHCDFS (disulfide 4-13 (inferred)) [SEQ ID NO 67]: 5%. The same measure, in the same setting: the value for GWTCSQPGANVWNCTMQ (disulfide 4-14 (inferred)) [SEQ ID NO 85] was 3%; that for {Gd^T″}-GQWHCTTD[Tyr(3-Cl)]PHHYCLYG (disulfide 5-14 (inferred); not fully specified (C-terminus)) [Compound ID 895] was 7%; that for WQVCADSPGVITYCYTY (disulfide 4-14 (inferred)) [SEQ ID NO 98] was 5%. The same measure, in the same setting: next, HWSCDLAMDNEWFCSTK (disulfide 4-14 (inferred)) [SEQ ID NO 84]: 3%. {Gd^T″}-GQWHCTTRFPHH[dR]CLYG (disulfide 5-14 (inferred); not fully specified (C-terminus)) [Compound ID 902] had a % bound of 7%. The molecule KWECVHTKGEWYCETK (disulfide 4-13 (inferred)) [SEQ ID NO 65] registered a % bound of 7%.

The molecule B3 had a % bound of 5%. On the same count and under the same terms, next, RWSCVLDADGWVCSDN (disulfide 4-13 (inferred)) [SEQ ID NO 66]: 6%; {Gd^T″}-GQWHCTTDFPH[Dap]YCLYG (disulfide 5-14) [Compound ID 886]: 8%; GWQCSGDASVWNCDWI (disulfide 4-13 (inferred)) [SEQ ID NO 39]: 6%.

Another assay addresses rat collagen, acid soluble, type I, rat tail (Upstate 08-115) (rat) (UniProt P02454). In words: dried collagen assay.
As to YHACYQAGCYIW (disulfide 4-9 (inferred)) [SEQ ID NO 107], the % bound was determined as 6%. Still for that read-out and setting: next, {Gd^T}-GQWACSGDEYTWHCNYE (disulfide 5-14 (inferred); not fully specified (C-terminus); reading uncertain) [Compound ID 840]: 3%; {Gd^T″}-GQWTCSGDEYAWHCNY[dE] (disulfide 5-14 (inferred); not fully specified (C-terminus)) [Compound ID 832]: 4%. Still for that read-out and setting: next, B4: 6%; GQWTCSADEYTWHCNYE (disulfide 5-14 (inferred)) [SEQ ID NO 142]: 6%; {Gd^T″}-GK([Gly-Gd^T″])WHCTTLFPHHVCLYG (disulfide 5-14 (inferred)) [Compound ID 966]: 8%. Take {Gd^T″}-DWTCS[dS]DEYTWHCNYE (disulfide 4-13 (inferred); not fully specified (C-terminus)) [Compound ID 836]: the % bound was found to be 8%. {Gd^T(3)}-GQWHCTTRFPHHY[Pen]LYG (disulfide 5-14; not fully specified (C-terminus)) [Compound ID 906] came in with a % bound of 5%.

Molecule {Gd^T″}-GQWTCSGDEYTWACNYE (disulfide 5-14 (inferred); not fully specified (C-terminus)) [Compound ID 833] came in with a % bound of 4%. The same measure, in the same setting: next, Cbz-GQWHCTK(Gd^T″)RFPHHYCLYG (disulfide 5-14 (inferred)) [Compound ID 940]: 8%; B5: 4%. As for {Gd^T(3)}-GQWHCTTRFPHH[d1Nal]CLYG (disulfide 5-14; not fully specified (C-terminus)) [Compound ID 904], the % bound is 3%. Turning to {Gd^T″}-GQWHCTDRFPHHYCLYG (disulfide 5-14 (inferred)) [Compound ID 936], the % bound is 5%. On the same count and under the same terms, the value for {Gd^T}-DWTCS[dL]DEYTWHCNYE (disulfide 4-13 (inferred); not fully specified (C-terminus); reading uncertain) [Compound ID 847] was 7%.

With {Gd^T″}-GQWHCTTD[Phe(4-NH2)](Gd^T″)PHHYCLYG (disulfide 5-14 (inferred)) [Compound ID 885], the % bound was found to be 9%.
